# Test results taken from publication PMC3086075.
# Target: recombinant class C acid phosphatase from Pasteurella multocida (Pasteurella multocida)
# Experiment: AUC
substance,measurement,value
recombinant class C acid phosphatase from Pasteurella multocida (enzyme),stoichiometry N,2
